From patent US20260250421A1 (BIOCYTOGEN PHARMACEUTICALS BEIJING, published 2026)

Legend:
Assay in all cases: SPR Biacore 8K, Ab on Protein A chip
[1] = target: T1, His-tagged cynomolgus monkey PTK7 protein (cynomolgus monkey, UniProt A0A2K5VNI5 39-712)
T1 construct: Bought protein; also called cPTK7-His; ACRO Biosystems Cat# PT7-C52H3; not shown: His tag
T1 sequence: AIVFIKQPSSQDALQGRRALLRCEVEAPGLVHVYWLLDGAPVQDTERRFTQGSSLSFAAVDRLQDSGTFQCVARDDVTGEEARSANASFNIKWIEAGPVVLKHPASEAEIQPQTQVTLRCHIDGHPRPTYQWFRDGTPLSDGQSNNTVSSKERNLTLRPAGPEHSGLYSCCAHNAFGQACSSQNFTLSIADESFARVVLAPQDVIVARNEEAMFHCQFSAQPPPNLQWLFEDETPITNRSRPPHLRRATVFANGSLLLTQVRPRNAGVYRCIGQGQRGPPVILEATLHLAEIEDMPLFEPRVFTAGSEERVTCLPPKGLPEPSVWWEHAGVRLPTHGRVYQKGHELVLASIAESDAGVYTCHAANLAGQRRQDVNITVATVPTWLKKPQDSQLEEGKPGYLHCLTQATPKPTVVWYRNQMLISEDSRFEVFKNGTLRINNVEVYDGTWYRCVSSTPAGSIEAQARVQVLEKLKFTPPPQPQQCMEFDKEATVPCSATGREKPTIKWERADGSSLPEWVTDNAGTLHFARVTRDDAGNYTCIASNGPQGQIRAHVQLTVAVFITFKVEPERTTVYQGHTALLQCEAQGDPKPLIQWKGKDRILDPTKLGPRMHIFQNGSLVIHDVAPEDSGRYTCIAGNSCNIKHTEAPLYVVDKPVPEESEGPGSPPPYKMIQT
Method: (§1) The affinity of the anti-PTK7/TROP2 bispecific antibodies to His-tagged human TROP2 protein (hTROP2-His, ACRO Biosystems Inc., Cat #: TR2-H5223), His-tagged […] monkey TROP2 protein (cTROP2-His, ACRO Biosystems Inc., Cat #: Cat: TR2-R52H3), His-tagged dog TROP2 protein (dTROP2-His, ACRO Biosystems Inc., Cat #: TR2-C52H4), hPTK7-His, cPTK7-His and dPTK7-His were measured by surface plasmon resonance (SPR) using Biacore™ (Biacore, INC, Piscataway N.J.) 8K biosensor equipped with pre-immobilized Protein A sensor chips.

[2] = target: T2, His-tagged human TROP2 protein (human, UniProt P09758 27-274)
T2 construct: Bought protein; also called hTROP2-His; ACRO Biosystems Cat# TR2-H5223; not shown: His tag
T2 sequence (looked up): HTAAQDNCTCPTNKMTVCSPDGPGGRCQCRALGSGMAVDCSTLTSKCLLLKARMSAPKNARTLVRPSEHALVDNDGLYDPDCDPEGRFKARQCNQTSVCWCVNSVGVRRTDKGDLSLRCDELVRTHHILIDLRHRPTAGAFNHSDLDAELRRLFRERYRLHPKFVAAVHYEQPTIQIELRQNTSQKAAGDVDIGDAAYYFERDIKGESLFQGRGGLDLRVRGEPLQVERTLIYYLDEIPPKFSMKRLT
Method: as §1

[3] = target: T3, His-tagged human PTK7 protein (human, UniProt Q13308 31-704)
T3 construct: Bought protein; also called hPTK7-His; not shown: His tag
T3 sequence: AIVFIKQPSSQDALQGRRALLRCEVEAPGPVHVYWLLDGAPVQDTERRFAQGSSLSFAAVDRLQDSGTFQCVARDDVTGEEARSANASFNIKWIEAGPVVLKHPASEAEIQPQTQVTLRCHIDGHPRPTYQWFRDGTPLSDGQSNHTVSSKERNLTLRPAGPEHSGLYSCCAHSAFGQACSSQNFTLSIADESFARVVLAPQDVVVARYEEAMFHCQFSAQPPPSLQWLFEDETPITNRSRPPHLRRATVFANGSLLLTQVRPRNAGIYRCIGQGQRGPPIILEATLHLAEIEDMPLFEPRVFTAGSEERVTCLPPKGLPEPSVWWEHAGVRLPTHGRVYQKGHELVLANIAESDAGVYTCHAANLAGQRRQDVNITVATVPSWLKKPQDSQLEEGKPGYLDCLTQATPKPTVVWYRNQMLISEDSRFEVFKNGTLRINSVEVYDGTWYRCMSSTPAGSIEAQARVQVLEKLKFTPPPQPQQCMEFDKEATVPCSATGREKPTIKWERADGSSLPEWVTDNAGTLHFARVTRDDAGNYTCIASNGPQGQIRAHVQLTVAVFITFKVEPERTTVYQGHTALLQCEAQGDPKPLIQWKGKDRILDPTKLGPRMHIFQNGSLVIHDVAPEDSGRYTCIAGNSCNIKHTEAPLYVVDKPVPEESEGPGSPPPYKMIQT
Method: as §1

[4] = target: T4, His-tagged dog PTK7 protein (dog, UniProt Q13308 31-703 (human entry))
T4 construct: also called dPTK7-His
T4 chain: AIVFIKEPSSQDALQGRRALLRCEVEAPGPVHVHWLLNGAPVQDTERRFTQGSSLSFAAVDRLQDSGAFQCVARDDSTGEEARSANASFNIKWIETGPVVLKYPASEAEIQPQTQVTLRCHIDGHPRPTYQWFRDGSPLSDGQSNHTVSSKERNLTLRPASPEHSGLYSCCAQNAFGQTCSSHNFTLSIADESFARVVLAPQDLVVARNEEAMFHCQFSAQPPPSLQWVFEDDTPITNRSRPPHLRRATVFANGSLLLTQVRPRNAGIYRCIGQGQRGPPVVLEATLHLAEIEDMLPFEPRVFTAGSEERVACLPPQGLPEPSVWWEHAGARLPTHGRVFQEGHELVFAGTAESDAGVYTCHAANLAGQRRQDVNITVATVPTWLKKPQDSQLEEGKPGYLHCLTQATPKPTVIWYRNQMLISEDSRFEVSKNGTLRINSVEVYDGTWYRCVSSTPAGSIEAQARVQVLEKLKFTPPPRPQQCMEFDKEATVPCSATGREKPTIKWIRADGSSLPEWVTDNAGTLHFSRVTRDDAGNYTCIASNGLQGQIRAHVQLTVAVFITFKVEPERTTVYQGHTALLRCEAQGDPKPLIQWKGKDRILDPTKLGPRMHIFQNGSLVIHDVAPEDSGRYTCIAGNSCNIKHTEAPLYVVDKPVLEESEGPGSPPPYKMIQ
Method: as §1

B1: 3C4-18E9 (bispecific antibody, human IgG1, V domains shown)
VH 1: QVQLEQSRAEVKKPGESLRISCKGSGYSFTSYWISWVRQMPGKGLEWMGRIDPSDSYTNYNPSFQGHVTISADKSISTAYLQWSSLKASDTAMYYCARRDGSYFDFDYWGQGTLVTVSS
VH 2: QLQLQQSGPGLLKPSETLSLTCTVSGGSISSSYYFWGWIRQPPGKGLEWIGAIYYIGNTHYNPSLKSRVTISIDTSKNQFSLNLNSVTAADTAIYYCARYEDTWNWFDPWGQGTLVTVSS
VL: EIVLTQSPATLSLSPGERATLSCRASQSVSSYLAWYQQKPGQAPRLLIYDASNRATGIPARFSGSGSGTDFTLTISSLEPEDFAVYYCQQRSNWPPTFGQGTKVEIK
notes: which arm carries the knob is stated only for 3C4-6F7; also called anti-PTK7/TROP2 bispecific antibody 3C4-18E9
For B1, the Kd [1] was 13.1 nM, the koff [1] was 0.00167 s⁻¹ and the kon [1] was 127000 M⁻¹ s⁻¹. It also gave a Kd [2] of 3.03 nM, a koff [2] of 0.00107 s⁻¹ and a kon [2] of 353000 M⁻¹ s⁻¹. It also gave a Kd [3] of 9.79 nM, a koff [3] of 0.00125 s⁻¹ and a kon [3] of 128000 M⁻¹ s⁻¹. The Kd [4] was 38.9 nM, the koff [4] was 0.00449 s⁻¹ and the kon [4] was 115000 M⁻¹ s⁻¹.
